assay: soluble on expression in E. coli; label from the status in PepcDB or PDB records

Row | Sequence | soluble on expression in E. coli
1 | MTQAEIKLCSLLLQEHFGEIVEKIGVHLIRTGSQPLRVIAHDTGTSLDQVKKALCVLVQHNLVSYQVHKRGVVEYEAQCSRVLRMLRYPRYIYTTKTLYSDTGELIVEELLLNGKLTMSAVVKKVADRLTETMEDGKTMDYAEVSNTFVRLADTHFVQRCPSVPTTENSDPGPPPPAPTLVINEKDMYLVPKLSLIGKGKRRRSSDEDAAGEPKAKRPKYTTDNKEPIPDDGIYWQANLDRFHQHFRDQAIVSAVANRMDQTSSEIVRTMLRMSEITTSSSAPFTQPLSSNEIFRSLPVGYNISKQVLDQYLTLLADDPLEFVGKSGDSGGGMYVINLHKALASLATATLKSVVQERFGSRCARIFRLVLQKKHIEQKQVEDFAMIPAKEAKDMLYKMLSENFMSLQVGCQ | not soluble
2 | MAAGVAAWLPFARAAAIGWMPVASGPMPAP | soluble
3 | MGSDKIHHHHHHMSYLTSSRCKLFYEDTAEQNPSLKDKPAILFVNGWAISSRYWRPTIDLLRQDFRCVTYDQSGTGKTSIDGCQPDLTIGGFADEAGALIEHLGLDKSRNLHIVGHSMGGMVATELCLRYRDALLSATILACGIFEETPFTSLGLMFLGGLIDVSMNFRNMFRVEPLRTLFIKRAATGHISKEYSDIIIEDFTTSDKAATNAVGHFSIDPEALRTYTRSVIEIASPVLCCVGMADHTIPPEGTITLFEKRKASATSPTRLVQFMHLGHLPMLEDTPCFVEQLKKHFDFAEHFYKKTQPATPLADRVQIQ | not soluble
4 | GHHDKRFKAFIAHDGIFNMEMQYLETEEKWFANWDMGGAYWEKQNPTAQRTFANSPHLFVEKWDTPILCIHGEKDYRILANQAMAAFDAAVMRGVPAELLIYPDENHWVLKPQNGVLWQRTFFEWLDQWLKPN | not soluble
5 | MVTTLTPVICESAPAAAASYSHAMKVNNLIFLSGQIPVTPDNKLVEGSIADKAEQVIQNIKNVLEASNSSLDRVVKVNIFLADINHFAEFNSVYAKYFNTHKPARSCVAVAALPLGVDMEMEAIAAERD | soluble
6 | MGRSRRTLPEELLLLALDPTTGTTAQPQSLDLGLAGAQLVELALAGRIAPDGDRIAVVAPRPTGDPTLDCALELLRRRGAPVRAVNWIGGPRLGLRQTYLSHLERCGMVHAVEGQMCGVLPTTRYQATDTAISREIKARLDSAIRTGVPPDPRTAALAALAHAVGLGKHLYPGNEGRSSRSRLRDLIRHDPMGGLVAHAVMDVQNGAAAQPRRSPAPAGRQAPGPGARPAPEPARGVPAQPRHGSMARAAVHLEHHHHHH | soluble
7 | DIQMTQSPSSLSASLGERVSLTCRASQDIGSKLYWLQQEPDGTFKRLIYATSSLDSGVPKRFSGSRSGSDYSLTISSLESEDFVDYYCLQYASSPYTFGGGTKLAIKRADAAPTVSIFPPSSEQLTSGGASVVCFLNNFYPKDINVKWKIDGSERQNGVLNSWTDQDSKDSTYSMSSTLTLTKDEYERHNSYTCEATHKTSTSPIVKSFNRNEC | soluble
8 | GGRGGFGGRGGFGGRGGFG | soluble
9 | GMSETITFPPLMTGEAAGPGQDPFDLACQKAELGVDAGLVVYELGTDVLRAALVLAPEVPLAKAMAMLPVCGVGFQNALGALAPPEVAVHLDWNGALRINGARCGRLRIAASTDDPDTQPDWLVVGLDLPLWPEGDGGETPDETALYAEGCADVAAPRLLESWARHCLHWINRWDEGELETIHGEWRGLAHGMGEARTEAGRSGTFLGVDEDFGMLLRDETTTHLIPLTTVLVQD | soluble
10 | MGSSHHHHHHSSGLVPRGSHMEAPAAVVTGAAKRIGRAIAVKLHQTGYRVVIHYHNSAEAAVSLADELNKERSNTAVVCQADLTNSNVLPASCEEIINSCFRAFGRCDVLVNNASAFYPTPLVQGDHEDNSNGKTVETQVAELIGTNAIAPFLLTMSFAQRQKGTNPNCTSSNLSIVNLCDAMVDQPCMAFSLYNMGKHALVGLTQSAALELAPYGIRVNGVAPGVSLLPVAMGEEEKDKWRRKVPLGRREASAEQIADAVIFLVSGSAQYITGSIIKVDGGLSLVHA | soluble
11 | MASGDVRIASLVPSITELLFDLGLADQLVARTGFCIHPEPAVRAVAKVGGTKDVKLDRLRALAPTHVVVNIDENRRETVDEIRTFVPHVIVTHPCAPEDNLALYRLLGGIFGRRPQAEALVGQLRGELDAIQAQTWPLEHHHHHH | not soluble
12 | MGSDKIHHHHHHMFDLHVHSVFSDGELIPSEIARRMYAAGNKGFAITDHADFTNIQDILAKLTRIKEHMESYEAKFLVGVEITHVPPSLIGKAVELAWKEGAEIVVVHGETVAEPVKEGTNLAALSEEITILAHPGIMSEEEAELARENGIYVEISARRGHCLGNGRVARLAEKYGFELVINTDMHSPSDIINDSTAERILKGAGVKEWKSVLENNEKLFRKLRK | not soluble
13 | MSLEIKPEDTWRLEDIFSTDDAWEKEFQEVKQLLPDAGGFQGKLGDSADKLYEALQYQDHLLERLGRLYSYAHMRYDQDTTNSFYQGLDDRIKNLYSQAASSLAYIVPEILAIDEEKISSFLDEKEELRLYKHSLEEINLQRPHVLSAEAEALLAQASEVLDAPGNTFGMLNNADLEFPSIKDENGEEVEVTHGRYIRFLESDDQRVRRDAFKAVYDTYGKFKNTFSSTLSSNVKKDNFYARVRNYDSARHAALSDNNIPESVYENLVNTVNDNLHLLHRYIKLRKEVLGLEKLHMYDLFTPLVKDVKMEIPYDEAKDYVLKGLEPLGEEYLSVLKEGFENRWVDVHENKGKRSGAYSSGAYGTNPYILMNWQDNVNNLFTLAHEFGHSVHSYYTRKTQPYPYGNYSIFVAEVASTCNEALLNDYLLKTIDDDQKRLYLLNHYLEGFRGTVFRQTMFAEFEHQIHQKAQNNEALTAEALTQDYYELNKKYFGEEDIIIDEEIGLEWSRIPHFYYNYYVYQYATGFSAATALSKQILEEGEPAVERYINFLKAGSSDYPIEVLKKAGVDMTSPAPIADACKVFEEKLNEMEELLNREGHHHHHH | soluble
14 | SADREGSVRVVGTAHVSSDSVEEVERVIDDEHPDTVAVELDEGRFRQMQGDAPDDLDATDLLKGSMAFQFLAYWLLSYAQRRLGEKFGIEPGADMQAAVDAANTAGADVALVDRDIQVTIQRFWARMSLPEKLRMGGELALGVTDSLTL | not soluble
15 | MQMKRTAFFISDGTGITAETLGQSLLAQFENISFVKLTRPYIDTEEKARAMVQQINNAAESDGARPIIFDTIVNRDIRAVLAQSNGFMIDIFATFLSPLEQELSADSSYSVGKSHSIGHNSNYMDRIEAVNFALDNDDGARTHYYDKADLILVGVSRCGKTPTCLYMALQYGIRAANYPLTEEDMERLQLPNALKQYKHKLFGLTIDPDRLTAIRNERKPNSRYASFAQCEFEVREVESLFRRENIAYINSTHFSVEEISAKILVEKGVERRFKLEHHHHHH | not soluble
16 | MGSDKIHHHHHHMELNLQTAELALREASESNPGAWADHSRFVAEACKNIASHCKDLSSEQAYIFGLLHDIGRYAGVSSERHLIDGYRYCMERGWEKAAQICISHAFMIQDIATSIGVFDVSDEDYLFMKEFVANAVYDDYDRLVQLCDALAMPSGFCLLEKRFVDVTMRYGVHPATIDRWKKILEIKEQFENQIGCSIYSLLPGIVENSFR | not soluble
17 | MAGISLLLDQAFHRHFADFFTLRSVDNRVLLNLASPRHQLAKQSLVLLAKCCFLFHLSVSISNFPTVYPTRSTIDRFKRIFPHSPRVNADLSSSSWQTSRRNYCDHALEEYVDKIFVDEAVNELQTIQDILRWSVSRFSAANIWYGHGTDNPWDEAVQLVLPSLYLPLDIPEDMRTARLTSSEKHRIVERVIRRVNERIPVAYLTNKAWFCGHEFYVDERVLVPRSPIGELINNKFAGLISKQPQHILDMCTGSGCIAIACAYAFPEAEVDAVDISPDALAVAEQNIEEHGLIHNVIPIRSDLFRDLPKVQYDLIVTNPPYVDAEDMSDLPNEYRHEPELGLASGTDGLKLTRRILGNAADYLADDGVLICEVGNSMVHLMEQYPDVPFTWLEFDNGGDGVFMLTKEQLIAAREHFAIYKD | not soluble
18 | GGGGGGMADLFSTVQEKVAGKDVKIVFPEGLDERILEAVSKLAGNKVLNPIVIGNENEIQAKAKELNLTLGGVKIYDPHTYEGMEDLVQAFVERRKGKATEEQARKALLDENYFGTMLVYKGLADGLVSGAAHSTADTVRPALQIIKTKEGVKKTSGVFIMARGEEQYVFADCAINIAPDSQDLAEIAIESANTAKMFDIEPRVAMLSFSTKGSAKSDETEKVADAVKIAKEKAPELTLDGEFQFDAAFVPSVAEKKAPDSEIKGDANVFVFPSLEAGNIGYKIAQRLGNFEAVGPILQGLNMPVNDLSRGCNAEDVYNLALITAAQAL | soluble
19 | MESIKVVIVGGGQAGIAMGYYLVKEKVPFMILDANEQVGDSWRNRYDSLVLFTPRTYSQLPGFPMDGAPNGFPTKDEMASYLQQYANHFNLPMRHHTKVDRVTRQQNGRFHLKTTNGWIEAEKVVIATGAFQKPYLPPVLDSANNEMSQVHSSAYRNPAQIPGKSVLVVGGGNSGAQIAVELAKERNVTMAISHPFRFLPLKLLNKSMFSWLEWGGLLYAGIDTTRGRWFKKQKDPIFGKELKSLIKKGQIHLKPRVMNVQGKEVEFADHSRLSFDRIIWSTGFSPSYEWIDIDGVIATNGWPIHNRGITNIRGLYFLGLPWQYQRGSALVCGVGRDAEYLVPFIKHGDK | not soluble
20 | MAHHHHHHMAPLKTQAPSNRSLLGYPLRRAAAMEMLYGGICIQHLAQPPFPLRTIQSESLPPPSLQGERDDLELEVKDSTGNVMGYRLFPVNIGIRARTESVRVRSEDCYKRFLAQKHCAAAGVPLQFPAPSSITNSNCLATPRAASHFHPPSSSLSLFTRPADSQGGDVGRTTPADVAAYHPRAWRPYQMLKPMPHNWGPAVRSSGVRGPHMQLLQERIDKKGFGWKRKSRSLWQQDISTAGFRPKRYF | not soluble
21 | MLIEGANSHGSGILLQRHGNTYVILTAYHVIEKGGQYTVKTVDGQRYAVRPSSIRRLPSVDLATLEIESNRDYTLATLGNSGEAVEGMPVFVAGFPAQEASVLGGIYQFTEGRLTANASRPIQDGYALVYSNPTLPGMSGGPVLDENGRLIGIHGSADIASTLVQEGSGASTVFVKRGFNLGIPIHTYLGLATPSRQTTVLPALASMKAADYFLAAEVAFRRKNFAAAIENYSQAIARNPNYSEAYLGRAVAQIFALVPNQDFDQLGEELGTKYLSRLTQGNPLLKDAFPPNPPTPLLETFMRTMAERPGTIQPDIAKAIALNPQYTEAYGVSSFLNLLLGNFGNAIAESERALALRPNNSDLQMIHSLALFLSGDFRRSIAVFDRLITANPQNTDYHLLRGVAAFMMGDYALSRPSWTALTQLTPRNPMPFALRGVTYLLEENFKASLPDLRQAAELYRQQGDMQSYNQMMQAIRQIESRLEHHHHHH | not soluble
22 | MDEMIFDPTMSKKKKKKKKPFMLDEEGDAQTEETQPSETKEVEPEPTEEKDVDADEEDSRKKDASDDLDDLNFFNQKKKKKKTKKIFDIDEAEEAIKDVKIESDAQEPAEPEDDLDIMLGNKKKKKKNVKFPEEDEILEKDEALEDEDSKKDDGISFSSQTAWAGSERDYTYEELLNRVFNIMREKNPDMVAGEKRKFVMKPPQVVRVGTKKTSFVNFTDICKLLHRQPKHLLAFLLAELGTSGSIDGNNQLVIKGRFQQKQIENVLRRYIKEYVTCHTCRSPDTILQKDTRLYFLQCETCHSRCSVASIKTGFQAVTGKRAQLRAKAN | soluble
23 | MAHHHHHHMSEARQIQSMIDFIEREAQEKAEELEAAAQEEYDVEKMRLVEAEKAKIRAMAEKKLKQVDVDRRVARANYSKVQRMRVMEERARTMEKLHEQTRQKIVAMVNNPPQYKPMLVRLIHQSLMSIRTDAVVQCRKEDEAEVVRSIPELERWYKEKTGATISIQTSKTYLDTAEAWGGVVVKSTDGRVVCNNTLSYRTKTCFDEQLPTVRFHLFNPDAPL | soluble
